This note sets out measurements from publication PMC9709975, “Chromatin-associated microprocessor assembly is regulated by the U1 snRNP auxiliary protein PRP40” (The Plant Cell, 2022).

In the assay the target is T1, PRE-MRNA PROCESSING PROTEIN 40b (AtPRP40b), recombinant (Arabidopsis thaliana, UniProt F4JCC1 1-992).
T1 construct: AtPRP40b, Arabidopsis thaliana U1 snRNP auxiliary protein; Made as MBP-6xHis-AtPRP40b from a pMal-derived plasmid; MBP cut off with TEV protease; Detected with anti-PRP40b; source: E. coli BL21-CodonPlus(DE3)-RIL, purified (Ni-NTA, TEV cleavage, second Ni-NTA, size exclusion chromatography); not shown: MBP, N-terminal, cleaved
T1 sequence (looked up): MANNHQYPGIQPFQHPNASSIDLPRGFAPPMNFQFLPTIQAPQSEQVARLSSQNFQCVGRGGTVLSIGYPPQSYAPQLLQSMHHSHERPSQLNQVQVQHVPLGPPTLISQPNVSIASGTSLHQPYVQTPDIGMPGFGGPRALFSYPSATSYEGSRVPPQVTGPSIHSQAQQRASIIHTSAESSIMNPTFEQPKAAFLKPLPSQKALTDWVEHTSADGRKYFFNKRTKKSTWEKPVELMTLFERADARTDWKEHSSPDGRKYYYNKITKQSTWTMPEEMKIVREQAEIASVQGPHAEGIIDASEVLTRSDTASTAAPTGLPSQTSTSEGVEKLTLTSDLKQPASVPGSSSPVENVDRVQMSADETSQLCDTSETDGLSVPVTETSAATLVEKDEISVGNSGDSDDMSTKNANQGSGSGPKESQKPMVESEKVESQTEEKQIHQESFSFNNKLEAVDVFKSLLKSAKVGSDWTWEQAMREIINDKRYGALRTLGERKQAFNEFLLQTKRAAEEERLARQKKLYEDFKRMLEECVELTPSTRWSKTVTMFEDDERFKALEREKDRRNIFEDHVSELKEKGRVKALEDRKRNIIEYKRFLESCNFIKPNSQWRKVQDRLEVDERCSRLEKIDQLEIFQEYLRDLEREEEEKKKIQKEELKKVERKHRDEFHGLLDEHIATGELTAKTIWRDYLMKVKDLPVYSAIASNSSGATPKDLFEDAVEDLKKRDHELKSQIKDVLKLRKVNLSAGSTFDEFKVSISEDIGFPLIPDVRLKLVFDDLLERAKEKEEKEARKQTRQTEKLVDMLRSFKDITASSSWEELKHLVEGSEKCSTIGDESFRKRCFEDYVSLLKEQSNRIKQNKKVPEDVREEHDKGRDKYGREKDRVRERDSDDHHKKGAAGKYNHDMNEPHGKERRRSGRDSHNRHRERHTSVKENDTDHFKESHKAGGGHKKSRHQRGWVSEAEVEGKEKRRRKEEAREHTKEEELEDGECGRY
In words: pull-down; 2 µg biotinylated CTD peptide on streptavidin paramagnetic particles; 2 µg of SE variant and AtPRP40b together; 1.5 h at 4°C in PBS pH 8.3, 5% glycerol, 1 mM DTT, 0.1% NP-40; five washes, immunoblot. The conditions noted are these: both partners purified. (In general: In western blotting, separated proteins are transferred to a membrane and probed.)

B1: SERRATE (SE), full length, recombinant (natural protein, Arabidopsis thaliana, UniProt Q9ZVD0 1-720, looked up)
chain: MADVNLPPSDSVDNRLPEKSTSSSPPPPPPSSSLPQQEQEQDQQQLPLRRERDSRERRDERDIERPPPNRRERDRSPLPPPRRDYKRRPSLSPPPPYRDRRHSPPQRRSPPQKRYRRDDNGYDGRRGSPRGGYGPPDRRFGYDHGGGYDREMGGRPGYGDERPHGRFMGRYQDWEGGRGGYGDASNSGNPQRDGLMSYKQFIQELEDDILPSEAERRYQEYKSEYITTQKRAFFNTHKEEDWLKNKYHPTNLLSVIERRNDLAQKVAKDFLLDLQSGTLDLGPAVTALNKSGRTSEPNSEDEAAGVGKRKRHGMGGAKENELLSAAPKAPSFTSDPKRILTDVEQTQALVRKLDSEKKIEENVLQGSETEKSGREKLHSGSTGPVVIIRGLTSVKGLEGVELLDTLVTYLWRVHGLDYYGKVETNEAKGLRHVRAEGKVSDAKGDENESKFDSHWQERLKGQDPLEVMAAKEKIDAAATEALDPHVRKIRDEKYGWKYGCGAKGCTKLFHAAEFVYKHLKLKHTELVTELTTKVREELYFQNYMNDPNAPGGQPATQQSGPRDRPIRRKPSMENRLRDDRGGRRERDGRANGNDRNDRSEDQQRGDNDGGNPGEVGYDAFGGQGGVHVPPFLSDINPPPMLMPVPGAGPLGPFVPAPPEVAMQMFRDPSGPNPPFEGSGRGGPAPFLLSPAFRQDPRRLRSYQDLDAPEEEVTVIDYRSL
notes: SERRATE, Arabidopsis thaliana, core component of the plant microprocessor; full length (720 residues by the printed deletion Δ681-720); Made as MBP-6xHis-SE from a pMal-derived plasmid; MBP cut off with TEV protease; source: E. coli BL21-CodonPlus(DE3)-RIL, purified (Ni-NTA, TEV cleavage, second Ni-NTA, size exclusion chromatography); not shown: MBP, N-terminal, cleaved
As for B1, the binding result is given as “binds”.
